# According to US20060204496A1 (published 2006):
# Changes are numbered by the printed parent chain.
# T1: AR1FLAG (solubilized receptor: extracellular domain of human AR1 with FLAG tag at the C terminus), … (human, UniProt P17181 28-436, biotin-labeled (NHS-PEO4-Biotin))
# T1 construct: extracellular domain; captured on streptavidin plates for the phage ELISA; also called biotin-labeled AR1FLAG; AR1 chain of type-I interferon receptor; not shown: FLAG tag at the C terminus
# T1 sequence (looked up): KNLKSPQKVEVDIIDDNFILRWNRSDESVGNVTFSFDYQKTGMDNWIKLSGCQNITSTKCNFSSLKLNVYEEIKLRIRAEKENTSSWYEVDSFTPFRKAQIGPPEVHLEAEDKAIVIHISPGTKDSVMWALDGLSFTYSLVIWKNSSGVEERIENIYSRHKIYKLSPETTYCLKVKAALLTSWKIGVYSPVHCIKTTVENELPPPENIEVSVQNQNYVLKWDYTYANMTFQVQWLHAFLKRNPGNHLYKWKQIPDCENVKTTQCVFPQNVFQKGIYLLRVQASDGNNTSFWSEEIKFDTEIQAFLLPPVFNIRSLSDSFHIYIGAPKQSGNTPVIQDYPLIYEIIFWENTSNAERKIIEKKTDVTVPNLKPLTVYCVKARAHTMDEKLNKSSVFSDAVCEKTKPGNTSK
# T2: AR2FLAG (solubilized receptor: extracellular domain of human AR2 with FLAG tag at the C terminus), … (human, UniProt P48551 27-243, biotin-labeled (NHS-PEO4-Biotin))
# T2 construct: extracellular domain; captured on streptavidin plates for the phage ELISA; also called biotin-labeled AR2FLAG; AR2 chain of type-I interferon receptor; not shown: FLAG tag at the C terminus
# T2 sequence (looked up): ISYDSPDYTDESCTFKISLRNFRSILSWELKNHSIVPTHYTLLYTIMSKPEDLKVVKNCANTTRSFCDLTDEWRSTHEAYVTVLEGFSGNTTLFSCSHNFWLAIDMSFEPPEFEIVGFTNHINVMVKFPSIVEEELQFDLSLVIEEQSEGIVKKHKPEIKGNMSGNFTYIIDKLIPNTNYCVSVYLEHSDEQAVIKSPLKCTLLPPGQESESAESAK
# B1: AR1-41 (anti-AR1 chain scFv clone) (scFv, V domains shown)
# VH: QVQLKQSGAELVRPGASVRLSCKASGYTFTFYWINWIKQRPEQGLEWIGRIDPYDSETRYNQKFKDKAILTVDKYSSTAYMQLSSLTSEDSAVYYCAKGVYDGHWFFDVWGAGTSVTVSS
# VL: DIVMTQSHKFMSTSVGDRVSITCKASQDVSTAVAWYQQKPGQSPKLLIYSASYRYTGVPARFSGSGSGTDFTFTISSVQTEDLAVYYCQQHYRTPPTFGGGTKLELKR
# notes: In the phage ELISA it stood as a mouse scFv fused to the f1 phage gene 3 product on phage
# B2: AR1-24 (anti-AR1 chain scFv clone) (scFv, V domains shown)
# VH: QVQLQQSGPELEKPGASVKISCKASGYSFSDYNMNWVKQSNGKSLEWIGNIDPYNGDTNYNQKFKGKATLTLDKSSSTAYMQLKSLTSEDSAVYFCARSRGWLLPFAYWGQGTLVTVSA
# VL: DILMTQSQKFMSTSVGDRVSVTCKASQNVGINVAWYQQKPGQSPKALIYSASYRYSGVPDRFTGSGSGTDFTLTISNVQSEDLAEYFCQQYNSYPLTFGGGTKLEIKR
# notes: scFv fused to f1 phage gene 3 product on phage in the ELISA
# B3: AR2-31 (anti-AR2 chain scFv clone) (scFv, V domains shown)
# VH: EVQLQQSGPELVRPGVSVKISCKGSSYKFTDYAMHWVKQSHAKSLEWIGVISTYYGNVKYNQKFKGKATMTVDKSSSTAYMELARLTSEDSAVYYCARSYGSYLDYWGQGTSVTVSS
# VL: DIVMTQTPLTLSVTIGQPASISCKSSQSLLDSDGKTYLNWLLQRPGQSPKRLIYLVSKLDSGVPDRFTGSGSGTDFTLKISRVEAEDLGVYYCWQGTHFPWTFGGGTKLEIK
# notes: as for B2
# B4: AR2-13 (anti-AR2 chain scFv clone) (scFv, V domains shown)
# VH: QVQLQQSGGELVRPGTSVKVSCKASGYAFTNYLIEWVKQRPGQGLDWIGMINPGSGGTKCNKKFKGKVTLTADKSSSTAYMHLSSLTSDDSAVYFCARSGWVSAMDYWGQGTSVTVSS
# VL: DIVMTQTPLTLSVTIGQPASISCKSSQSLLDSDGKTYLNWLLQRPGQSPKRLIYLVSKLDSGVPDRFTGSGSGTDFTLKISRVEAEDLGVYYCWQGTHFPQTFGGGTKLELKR
# notes: as for B2
# B5: AR2-45 (anti-AR2 chain scFv clone) (scFv, V domains shown)
# VH: B4 VH with G9V, S103Y
# VL: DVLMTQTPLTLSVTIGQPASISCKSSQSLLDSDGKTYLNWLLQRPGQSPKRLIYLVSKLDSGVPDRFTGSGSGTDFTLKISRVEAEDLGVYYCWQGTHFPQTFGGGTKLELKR
# notes: as for B2
# B6: AR2-14 (anti-AR2 chain scFv clone) (scFv, V domains shown)
# VH: QVQLQQSGAELVRPGTSVKVSCKASGYAFTNYLIEWVKQRPGQGPEWIGVINPGSGNIRYNGKFKGKATLTADKSSSTAYMQLSSLTSDDSAVYFCARDAYYVGAMDYWGQGTSVTVSS
# VL: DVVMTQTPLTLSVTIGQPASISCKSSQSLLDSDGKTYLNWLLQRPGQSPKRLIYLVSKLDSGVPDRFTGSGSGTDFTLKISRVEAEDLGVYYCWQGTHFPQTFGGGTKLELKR
# notes: as for B2
# B7: AR2-44 (anti-AR2 chain scFv clone) (scFv, V domains shown)
# VH: QVQLQQSEAELVRPETSVKVSCKASGYSFRNYLIEWVKQRPGQGLEWIGVINPGSGNTKYNEKFKGKATLTADKSSSTAYMQLSSLTSDDSAVYFCARDGYYLGTMDYWGQGTSVTVSS
# VL: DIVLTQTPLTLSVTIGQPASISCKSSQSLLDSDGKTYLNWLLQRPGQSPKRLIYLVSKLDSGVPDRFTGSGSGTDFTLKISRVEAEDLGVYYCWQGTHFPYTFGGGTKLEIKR
# notes: as for B2
# B8: AR2-33 (anti-AR2 chain scFv clone) (scFv, V domains shown)
# VH: B7 VH with E8G, E15G, S28A, R30I, Y32N, K38Q, T58V, Y108H
# VL: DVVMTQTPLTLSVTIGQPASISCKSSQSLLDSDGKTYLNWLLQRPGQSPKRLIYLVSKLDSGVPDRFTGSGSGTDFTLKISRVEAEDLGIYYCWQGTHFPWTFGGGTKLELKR
# notes: as for B2
# B9: AR2-22 (anti-AR2 chain scFv clone) (scFv, V domains shown)
# VH: QVQLQQSGPELVRPGVSVKISCKGSGYRFTDYAIHWVKQSHAKSLEWIGVISTYYGNTRYNQKFKGKATMTVDKSSSTAYMELASLTSEDSVIYYCARSGGSLMDYWGQGTSVTVSS
# VL: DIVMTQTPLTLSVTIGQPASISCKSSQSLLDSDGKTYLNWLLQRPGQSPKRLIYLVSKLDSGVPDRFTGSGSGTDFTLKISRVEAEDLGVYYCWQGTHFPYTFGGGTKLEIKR
# notes: as for B2
# B10: AR2-43 (anti-AR2 chain scFv clone) (scFv, V domains shown)
# VH: B9 VH with R28T, I34M, G56S, S85R, V92A, A97V, L103N
# VL: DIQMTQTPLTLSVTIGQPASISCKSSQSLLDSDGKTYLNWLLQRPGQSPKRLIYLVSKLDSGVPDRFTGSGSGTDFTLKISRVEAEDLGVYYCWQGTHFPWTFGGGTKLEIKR
# notes: as for B2
# B11: AR2-40 (anti-AR2 chain scFv clone) (scFv, V domains shown)
# VH: B3 VH with E1Q, Y100S
# VL: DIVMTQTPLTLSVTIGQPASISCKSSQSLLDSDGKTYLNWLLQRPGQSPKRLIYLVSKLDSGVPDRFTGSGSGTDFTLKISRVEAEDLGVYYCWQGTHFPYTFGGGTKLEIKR
# notes: as for B2
# B12: AR2-37 (anti-AR2 chain scFv clone) (scFv, V domains shown)
# VH: QVQLQQSGPELVRPGVSVKISCKGSGYTFTDYAIHWVRQSHAQSLEWIGVIGTYSGNRNYNQKFKGKATMTVDKSSSTAYMELARLTSEDSAIYYCARSAGYSLDFWGQGTSVTVSS
# VL: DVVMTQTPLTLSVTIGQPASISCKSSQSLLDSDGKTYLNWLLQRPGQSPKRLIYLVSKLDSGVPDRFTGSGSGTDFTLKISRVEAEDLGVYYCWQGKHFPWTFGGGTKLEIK
# notes: as for B2
# Target: T1, AR1FLAG (solubilized receptor: …)
# Assay: phage ELISA, biotin-labeled AR1FLAG on streptavidin plates, anti-M13-HRP detection
# Procedure: (§1) The single colonies described above were inoculated to 150 μl of 2×YTAG and cultured at 30° C. overnight. 51 μl of the cultures was inoculated to 500 μl of 2×YTAG, and incubated at 37° C. for two hours. Then 100 μl of 2×YTAG containing 2.5×10⁹ pfu of helper phage and 0.3 μl of 1 mol/l IPTG was added to the cultures, and allowed to stand at 37° C. for 30 minutes. The cultures were then incubated at 30° C. overnight, and their culture supernatant was subjected to ELISA. StreptaWell 96-well microtiter plates (Roche) were coated overnight with 100 μl of PBS containing 1.0 μg/ml biotin-labeled AR1FLAG or AR2FLAG The plates were washed with PBST to remove free antigens, and then blocked overnight with 200 μl of 2% M-PBS. 2% M-PBS was removed and the culture supernatant was added to the plates. The plates were allowed to stand for 40 minutes to bind with the antibodies. After the plates were washed, bound phages were detected using HRP-conjugated anti-M13 antibody (Amersham Pharmacia Biotech) diluted with 2% M-PBS and BM blue POD substrate (Roche). The reaction was stopped by adding sulfuric acid, and absorbance was determined at 450 nm.
row,Binder,binding result
1,B1,binds
2,B2,binds

# Target: T2, AR2FLAG (solubilized receptor: …)
# Assay: phage ELISA, biotin-labeled AR2FLAG on streptavidin plates, anti-M13-HRP detection
# Procedure: as §1
row,Binder,binding result
1,B3,binds
2,B4,binds
3,B5,binds
4,B6,binds
5,B7,binds
6,B8,binds
7,B9,binds
8,B10,binds
9,B11,binds
10,B12,binds
